Test results: patent publication US20060153851A1, “CLASP proteins” (ARBOR VITA CORPORATION, published 2006)

Key:
GST-NeDLG fusion protein [1] = target: T1, GST-NeDLG fusion protein (human, UniProt Q92796); assay: biotinylated peptide titration on plate-bound GST fusion (FIG. 9B)
T1 sequence: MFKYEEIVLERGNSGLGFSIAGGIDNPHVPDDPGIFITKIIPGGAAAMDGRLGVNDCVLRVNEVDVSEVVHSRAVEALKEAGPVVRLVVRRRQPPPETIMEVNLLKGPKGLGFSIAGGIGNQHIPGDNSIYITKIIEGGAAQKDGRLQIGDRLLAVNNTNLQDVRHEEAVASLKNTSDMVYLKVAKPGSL
Experimental: 20 μM biotinylated synthetic peptide corresponding to the C-terminal 20 amino acids of CLASP-2 was reacted with the indicated plate bound GST fusion proteins (none=no GST fusion protein coated onto plate). Error bars indicate standard deviation of duplicate measurements. B. Affinity of CLASP 2-PDZ interactions. Varying concentrations of biotinylated CLASP-2 peptide were reacted with plate bound GST alone, GST-DLG1, GST-NeDLG, and GST-PSD95 fusion proteins. The binding to GST alone (<0.1 OD units) was subtracted from the binding to the fusion proteins and the remaining signal was divided by the signal observed upon addition of 30 μM CLASP-2 peptide to each PDZ domain-containing protein (0.4-1.0 OD units) and plotted. […] Data are means of duplicate data points, with standard errors between duplicate data points <10%. C. Inhibition of CLASP-2-PDZ binding. 5 μM biotinylated synthetic peptide corresponding to the C-terminal 20 amino acids of CLASP-2 was reacted with the indicated, plate-bound PDZ domain-containing GST fusion proteins in the presence or absence of 100 μM competitor peptide. CLASP-2 Inhibitor refers to a synthetic peptide composed of the eight C-terminal amino acids of CLASP-2. […]
The binding of a biotinylated carboxyl-terminal peptide to a GST-PDZ fusion protein is measured as follows: [0470] […]

GST-DLG1 fusion protein = GST-DLG1 fusion protein (Homo sapiens (Human), UniProt Q12959); assay: varying concentrations of biotinylated peptide on plate-bound GST fusion, streptavidin-HRP, fit to a saturation binding curve (FIG. 9B)
Experimental: (§1) 20 μM biotinylated synthetic peptide corresponding to the C-terminal 20 amino acids of CLASP-2 was reacted with the indicated plate bound GST fusion proteins (none=no GST fusion protein coated onto plate). Error bars indicate standard deviation of duplicate measurements. B. Affinity of CLASP 2-PDZ interactions. Varying concentrations of biotinylated CLASP-2 peptide were reacted with plate bound GST alone, GST-DLG1, GST-NeDLG, and GST-PSD95 fusion proteins. The binding to GST alone (<0.1 OD units) was subtracted from the binding to the fusion proteins and the remaining signal was divided by the signal observed upon addition of 30 μM CLASP-2 peptide to each PDZ domain-containing protein (0.4-1.0 OD units) and plotted. […] Data are means of duplicate data points, with standard errors between duplicate data points <10%. C. Inhibition of CLASP-2-PDZ binding. 5 μM biotinylated synthetic peptide corresponding to the C-terminal 20 amino acids of CLASP-2 was reacted with the indicated, plate-bound PDZ domain-containing GST fusion proteins in the presence or absence of 100 μM competitor peptide. CLASP-2 Inhibitor refers to a synthetic peptide composed of the eight C-terminal amino acids of CLASP-2. KV1.3 Inhibitor refers to a synthetic peptide composed of the 19 C-terminal amino acids of KV1.3, a lymphocyte potassium channel. The amino acid sequence of the KV1.3 inhibitor is […]. D. Inhibition of KV1.3-PDZ binding. 5 μM biotinylated synthetic peptide corresponding to the C-terminal 19 amino acids of KV1.3 was reacted with the indicated, plate-bound PDZ-domain containing GST fusion proteins in the presence or absence of 100 μM CLASP-2 Inhibitor (see FIG. 9C legend).
(§2) The binding of a biotinylated carboxyl-terminal peptide to a GST-PDZ fusion protein is measured as follows: [0470] (1) GST fusion protein containing one or more PDZ domain(s) is coated onto a protein-binding surface. […]

GST-NeDLG fusion protein [2] = target: T1, GST-NeDLG fusion protein; assay: as above
Experimental: as §1, §2

GST-PSD95 fusion protein = GST-PSD95 fusion protein (Homo sapiens (Human), UniProt P78352); assay: as above
Experimental: as §1, §2

B1: biotinylated synthetic peptide corresponding to the C-terminal 20 amino acids of CLASP-2 (peptide)
peptide: VLHHHQNPEFYDEIKIELPTQLHEKHHLLLTFFHVSCDNSSKGSTKKRDVVETQVGYSWLPLLKDGRVVTSEQHIPVSANLPSGYLGYQELGMGRHYGPEIKWVDGGKPLLKISTHLVSTVYTQDQHLHNFFQYCQKTESGAQALGNELVKYLKSLHAMEGHVMIAFLPTILNQLFRVLTRATQEEVAVNVTRVIIHVVAQCHEEGLESHLRSYVKYAYKAEPYVASEYKTVHEELTKSMTTILKPSADFLTSNKLLRYSWFFFDVLIKSMAQHLIENSKVKLLRNQRFPASYHHAAETVVNMLMPHITQKFGDNPEASKNANHSLAVFIKRCFTFMDRGFVFKQINNYISCFAPGDPKTLFEYKFEFLRVVCNHEHYIPLNLPMPFGKGRIQRYQDLQLDYSLTDEFCRNHFLVGLLLREVGTALQEFREVRLIAISVLKNLLIKHSFDDRYASRSHQARIATLYLPLFGLLIENVQRINVRDVSPFPVNAGMTVKDESLALPAVNPLVTPQKGSTLDNSLHKDLLGAISGIASPYTTSTPNINSVRNADSRGSLISTDSGNSLPERNSEKSNSLDKHQQSSTLGNSVVRCDKLDQSEIKSLLMCFLYILKSMSDDALFTYWNKASTSELMDFFTISEVCLHQFQYMGKRYIARNQEGLGPIVHDRKSQTLPVSRNRTGMMHARLQQLGSLDNSLTFNHSYGHSDADVLHQSLLEANIATEVCLTALDTLSLFTLAFKNQLLADHGHNPLMKKVFDVYLCFLQKHQSETALKNVFTALRSLIYKFPSTFYEGRADMCAALCYEILKCCNSKLSSIRTEASQLLYFLMRNNFDYTGKKSFVRTHLQVIISVSQLIADVVGIGETRFQQSLSIINNCANSDRLIKHTSFSSDVKDLTKRIRTVLMATAQMKEHENDPEMLVDLQYSLAKSYASTPELRKTWLDSMARIHVKNGDLSEAAMCYVHVTALVAEYLTRKGVFRQGCTAFRVITPNIDEEASMMEDVGMQDVHFNEDVLMELLEQCADGLWKAERYELIADIYKLIIPIYEKRRDFFEDEDGKEYIYKEPKLTPLSEISQRLLKLYSDKFGSENVKMIQDSGKVNPKDLDSKYAYIQVTHVIPFFDEKELQERKTEFERSHNIRRFMFEMPFTQTGKRQGGVEEQCKRRTILTAIHCFPYVKKRIPVMYQHHTDLNPIEVAIDEMSKKVAELRQLCSSAEVDMIKLQLKLQGSVSVQVNAGPLAYARAFLDDTNTKRYPDNKVKLLKEVFRQFVEACGQALAVNERLIKEDQLEYQEEMKANYREMAKELSEIMHEQICPLEEKTSVLPNSLHIFNAISGTPTSTMVHGMTSSSSVV
modifications: biotin at the amino-terminus
- Ka (GST-NeDLG fusion protein [1]): ≥ 10000 M⁻¹
- Kd (GST-DLG1 fusion protein): 21 µM
- Kd (GST-NeDLG fusion protein [2]): 7.5 µM
- Kd (GST-PSD95 fusion protein): 45 µM
